The record followed here is publication PMC3710364.

Data set [1] addresses T1, TIAR RRM12S (UniProt Q01085 8-175).
T1 sequence: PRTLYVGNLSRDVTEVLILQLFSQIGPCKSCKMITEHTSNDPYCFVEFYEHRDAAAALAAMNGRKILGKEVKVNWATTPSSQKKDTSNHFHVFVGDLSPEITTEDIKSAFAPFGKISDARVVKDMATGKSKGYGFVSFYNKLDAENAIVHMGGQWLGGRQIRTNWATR
Nature of the data set: SPR.

The target in data set [2] is T2, TIAR RRM2L (UniProt Q01085 94-181).
T2 sequence: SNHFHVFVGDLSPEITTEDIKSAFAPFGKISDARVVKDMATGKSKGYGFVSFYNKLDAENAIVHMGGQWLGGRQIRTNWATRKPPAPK
Nature of the data set: SPR.

The target in data set [3] is T3, TIAR RRM1 (UniProt Q01085 1-94).
T3 sequence: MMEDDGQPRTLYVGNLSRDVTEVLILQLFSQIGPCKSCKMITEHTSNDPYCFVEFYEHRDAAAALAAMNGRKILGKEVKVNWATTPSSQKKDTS
Nature of the data set: SPR.

Data set [4] has as its target T2, TIAR RRM2L. Nature of the data set: NMR.

B1: T-rich DNA (ssDNA)
DNA: TTTTTTTTTTTTTTTTTTTT
Turning to B1, the Kd came to 314 ± 2 nM in data set [1] and 66 ± 3 nM in data set [2].

B2: U-rich RNA (ssRNA)
RNA: GGGGGGUUUUUUUUUUUUUUUUUGGGGG
For B2, the binding result in data set [3] is “no binding”. Further, the Kd in data set [2] was determined as 200 ± 6 nM.

B3: 6-nt AU-rich RNA (ssRNA)
RNA: UUAUUU
For B3, the binding result in data set [4] is recorded as “binds”.
